pKd: −log10 of the molar value.
Legend:
[1] = molecular target: Full-length Hsc70-T204A (ATPase deficient mutant) (human) (UniProt P11142); test: NMR 15N-CPMG relaxation dispersion with exchange-induced shifts; 15N-labelled JDP (DNAJB6 JD-GF 200 μM, DNAJB6 JD 350 μM, DNAJB1 300 μM) with unlabelled Hsc70-T204A at a molar ratio of 0.1, ATP-regenerating system, 20 mM HEPES pH 7.0, 50 mM KCl, 2.5 mM MgCl2, 25 °C, 600, 800 and 950 MHz; fit to a 2-state model; kex = kon app + koff
[2] = molecular target: Full-length Hsc70-T204A (ATPase deficient mutant) (human) (UniProt P11142); test: NMR 15N-CPMG relaxation dispersion and exchange-induced shifts; 15N-labelled JDP observed, unlabelled Hsc70-T204A added to a molar ratio of 0.1 (DNAJB6 JD-GF 200 uM, DNAJB6 JD 350 uM, DNAJB1 300 uM); 25 °C; 20 mM HEPES pH 7.0, 50 mM KCl, 2.5 mM MgCl2; ATP-regenerating system with 2.5 mM ATP; fit to a two-state binding model

Sequence of Full-length Hsc70-T204A (ATPase deficient mutant) (human) (P11142 whole entry T204A): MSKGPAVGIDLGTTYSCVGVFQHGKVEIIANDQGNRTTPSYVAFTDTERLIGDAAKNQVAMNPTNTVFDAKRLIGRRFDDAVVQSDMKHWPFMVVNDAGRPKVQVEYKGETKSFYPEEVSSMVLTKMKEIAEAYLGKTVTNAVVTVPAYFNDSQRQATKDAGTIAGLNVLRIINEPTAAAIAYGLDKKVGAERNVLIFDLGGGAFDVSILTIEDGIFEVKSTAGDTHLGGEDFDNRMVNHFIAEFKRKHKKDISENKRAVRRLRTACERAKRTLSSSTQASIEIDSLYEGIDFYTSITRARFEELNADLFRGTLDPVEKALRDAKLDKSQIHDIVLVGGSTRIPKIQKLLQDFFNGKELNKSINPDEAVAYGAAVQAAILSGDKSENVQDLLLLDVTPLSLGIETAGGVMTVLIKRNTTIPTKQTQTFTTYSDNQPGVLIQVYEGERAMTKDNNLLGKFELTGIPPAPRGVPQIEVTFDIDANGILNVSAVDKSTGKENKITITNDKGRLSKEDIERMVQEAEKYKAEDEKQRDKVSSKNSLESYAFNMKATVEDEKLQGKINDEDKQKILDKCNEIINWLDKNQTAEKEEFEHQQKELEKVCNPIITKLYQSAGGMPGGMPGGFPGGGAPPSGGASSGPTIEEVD

Substance	pKd [1]	kex [1] [s⁻¹]	koff [1] [s⁻¹]	kon [2] [M⁻¹ s⁻¹]
DNAJB6 JD (from UniProt O75190 1-326) (domain or fragment)	5.52	3000	2700	
DNAJB6 JD-GF (from UniProt O75190 1-326) (domain or fragment)	3.42	600	580	1.54e+06

Source: paper PMC12126530
